The results in this text go back to publication PMC7584632.

Experiment [1] deals with SpyCas9 (Streptococcus pyogenes).
The target is the same in experiment [2]. The source holds these as a separate data set.

“AcrIIA4-hCdt1(30–120) (from UniProt Q9H211 30-120)” had a mutagenesis rate by NHEJ (T7E1 assay) with the AcrIIA4-Cdt1-2A-Cas9 vector; SpyCas9 vector alone 8.0% in experiment [1] of 3.7%. The same substance showed a repression of the target mutation at AAVS1 (T7E1 assay, ssODN template) against SpyCas9 alone in experiment [2] of 79.1%. AcrIIA4 (natural protein) gave a mutagenesis rate by NHEJ (T7E1 assay) with the AcrIIA4-2A-Cas9 vector; SpyCas9 vector alone 8.0% in experiment [1] of 0.9%.
